From patent US5622828, “High-affinity oligonucleotide ligands to secretory phospholipase A2 (sPLA2)” (Nexstar Pharmaceuticals, Inc.)
Positions count from the first letter of the chain named.

What was measured:
[1] = biological target: T1, secretory phospholipase A2 (sPLA2) (Homo sapiens, UniProt P14555 P14555:21-144); assay: filter; biphasic, Kd2 530 nM, mole fraction 0.40; TBSC, 37 C; details: tags: supplied by Eli Lilly
T1 sequence: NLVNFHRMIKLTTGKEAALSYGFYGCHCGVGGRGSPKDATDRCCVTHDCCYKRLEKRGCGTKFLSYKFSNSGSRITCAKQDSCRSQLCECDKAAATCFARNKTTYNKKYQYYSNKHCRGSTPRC
Experimental: (§1) The nitrocellulose filter partitioning method was used as described in SELEX Patent Applications to determine the affinity of RNA ligands for sPLA_2 and for other promins. Filter discs (nitrocellulose/cellulose acetate mixed matrix, 0.45 µm pore size, Millipore) were placed on a vacuum manifold and washed with 5 ml of TBSC buffer under vacuum. Reaction mixtures, containing ^32P labeled RNA pools and sPLA_2, were incubated in TBSC for 5 minutes at 37° C., filtered, and then immediately washed with 5 ml TBSC. The filters were air-dried and counted in a Beckman liquid scintillation counter without fluor.
(§2) The dissociation constants for representative members of families I–VI, orphan and other ligands were determined by nitrocellulose filter binding experiments and are listed in Table III. Unlike random RNA, all tested ligands from the 2'OH SELEXes bound biphasically.

[2] = biological target: T1, secretory phospholipase A2 (sPLA2); assay: filter; biphasic, Kd2 180 nM, mole fraction 0.45; TBSC, 37 C; details: tags: supplied by Eli Lilly
Experimental: as §1, §2

[3] = biological target: pancreatic phospholipase A2 (bpPLA2) (Bos taurus, UniProt P00593 P00593:23-145); assay: filter; specificity control, like random RNA; TBSC
Experimental: (§3) The affinity of sPLA_2 ligands 2, 72, 80, 87, NN19 and NN19.15 (SEQ ID NOs.:11, 20, 53, 54, 64, and 117, respectively) for proteins other than sPLA_2 was determined by nitrocellulose partitioning (Tables IV and V). Like sPLA_2, hen egg white lysozyme, bFGF and elastase are small, highly cationic proteins. Bovine pancreatic PLA_2 is an evolutionarily and structurally related enzyme. […] Specificity is particularly well illustrated by the affinities for bovine pancreatic PLA_2 which is 10^4-fold less than that for human sPLA_2.
(§4) *Standard binding experiments were performed to the specified target protein in TBSC and K_d's is calculated by curve fitting. The ligands bind no better than randomized RNA (30N1) to lysozyme (hen egg-white), human basic fibroblast growth factor basic (bFGF) and bovine pancreatic PLA₂. The sPLA₂ K_d that of the high affinity species.

[4] = biological target: basic fibroblast growth factor (bFGF) (Homo sapiens, UniProt P09038 P09038:143-288); assay: filter; specificity control, like random RNA; TBSC
Experimental: as §3, §4

lysozyme (egg white) = lysozyme (egg white) (Gallus gallus, UniProt P00698 P00698:19-147); assay: filter; specificity control, like random RNA; TBSC; details: tags: 6x crystallized
Experimental: as §3, §4

[5] = biological target: T1, secretory phospholipase A2 (sPLA2); assay: filter; biphasic, Kd2 720 nM, mole fraction 0.40; TBSC, 37 C; details: tags: supplied by Eli Lilly
Experimental: as §1, §2

[6] = biological target: T1, secretory phospholipase A2 (sPLA2); assay: filter; biphasic, Kd2 1830 nM, mole fraction 0.50; TBSC, 37 C; details: tags: supplied by Eli Lilly
Experimental: as §1, §2

[7] = biological target: T1, secretory phospholipase A2 (sPLA2); assay: filter; biphasic, Kd2 450 nM, mole fraction 0.35; TBSC, 37 C; details: tags: supplied by Eli Lilly
Experimental: as §1, §2

[8] = biological target: T1, secretory phospholipase A2 (sPLA2); assay: filter; biphasic, Kd2 170 nM, mole fraction 0.30; TBSC, 37 C; details: tags: supplied by Eli Lilly
Experimental: as §1, §2

[9] = biological target: T1, secretory phospholipase A2 (sPLA2); assay: filter; only low-affinity Kd2 listed; 5' G removed; TBSC, 37 C; details: tags: supplied by Eli Lilly
[10] = biological target: T1, secretory phospholipase A2 (sPLA2); assay: filter; biphasic, Kd2 300 nM, mole fraction 0.55; TBSC, 37 C; details: tags: supplied by Eli Lilly
Experimental: as §1, §2

[11] = biological target: T1, secretory phospholipase A2 (sPLA2); assay: filter; biphasic, Kd2 62 nM, mole fraction 0.50; TBSC, 37 C; details: tags: supplied by Eli Lilly
Experimental: as §1, §2

[12] = biological target: T1, secretory phospholipase A2 (sPLA2); assay: filter; biphasic, Kd2 740 nM, mole fraction 0.55; TBSC, 37 C; details: tags: supplied by Eli Lilly
Experimental: as §1, §2

[13] = biological target: T1, secretory phospholipase A2 (sPLA2); assay: filter; biphasic, Kd2 110 nM, mole fraction 0.40; TBSC, 37 C; details: tags: supplied by Eli Lilly
Experimental: as §1, §2

[14] = biological target: T1, secretory phospholipase A2 (sPLA2); assay: filter; biphasic, Kd2 43 nM, mole fraction 0.25; TBSC, 37 C; details: tags: supplied by Eli Lilly
Experimental: as §1, §2

[15] = biological target: T1, secretory phospholipase A2 (sPLA2); assay: filter; biphasic, Kd2 33 nM, mole fraction 0.55; TBSC, 37 C; details: tags: supplied by Eli Lilly
Experimental: as §1, §2

[16] = biological target: T1, secretory phospholipase A2 (sPLA2); assay: filter; biphasic, Kd2 170 nM, mole fraction 0.15; Table III prints SEQ 104, name matches SEQ 105; TBSC, 37 C; details: tags: supplied by Eli Lilly
Experimental: as §1, §2

[17] = biological target: T1, secretory phospholipase A2 (sPLA2); assay: filter; biphasic, Kd2 250 nM, mole fraction 0.30; TBSC, 37 C; details: tags: supplied by Eli Lilly
Experimental: as §1, §2

[18] = biological target: T1, secretory phospholipase A2 (sPLA2); assay: filter; biphasic, Kd2 170 nM, mole fraction 0.65; TBSC, 37 C; details: tags: supplied by Eli Lilly
Experimental: as §1, §2

[19] = biological target: T1, secretory phospholipase A2 (sPLA2); assay: filter; biphasic, Kd2 360 nM, mole fraction 0.40; TBSC, 37 C; details: tags: supplied by Eli Lilly
Experimental: as §1, §2

[20] = biological target: T1, secretory phospholipase A2 (sPLA2); assay: filter; biphasic, Kd2 1320 nM, mole fraction 0.50; TBSC, 37 C; details: tags: supplied by Eli Lilly
Experimental: as §1, §2

[21] = biological target: T1, secretory phospholipase A2 (sPLA2); assay: filter; biphasic, Kd2 300 nM, mole fraction 0.40; TBSC, 37 C; details: tags: supplied by Eli Lilly
Experimental: as §1, §2

[22] = biological target: T1, secretory phospholipase A2 (sPLA2); assay: filter; biphasic, Kd2 450 nM, mole fraction 0.50; TBSC, 37 C; details: tags: supplied by Eli Lilly
Experimental: as §1, §2

[23] = biological target: T1, secretory phospholipase A2 (sPLA2); assay: filter; biphasic, Kd2 840 nM, mole fraction 0.50; TBSC, 37 C; details: tags: supplied by Eli Lilly
Experimental: as §1, §2

[24] = biological target: T1, secretory phospholipase A2 (sPLA2); assay: filter; biphasic, Kd2 130 nM, mole fraction 0.40; TBSC, 37 C; details: tags: supplied by Eli Lilly
Experimental: as §1, §2

[25] = biological target: T1, secretory phospholipase A2 (sPLA2); assay: filter; biphasic, Kd2 52 nM, mole fraction 0.35; TBSC, 37 C; details: tags: supplied by Eli Lilly
Experimental: as §1, §2

[26] = biological target: T1, secretory phospholipase A2 (sPLA2); assay: filter; biphasic, Kd2 310 nM, mole fraction 0.25; TBSC, 37 C; details: tags: supplied by Eli Lilly
Experimental: as §1, §2

pancreatic phospholipase A2 (bpPLA2), sequence (P00593 23-145, one chain of several): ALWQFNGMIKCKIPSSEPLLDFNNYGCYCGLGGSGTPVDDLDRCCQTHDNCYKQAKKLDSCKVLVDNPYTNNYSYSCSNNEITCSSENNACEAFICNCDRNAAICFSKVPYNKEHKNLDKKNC
lysozyme (egg white), sequence (P00698 19-147, one chain of several): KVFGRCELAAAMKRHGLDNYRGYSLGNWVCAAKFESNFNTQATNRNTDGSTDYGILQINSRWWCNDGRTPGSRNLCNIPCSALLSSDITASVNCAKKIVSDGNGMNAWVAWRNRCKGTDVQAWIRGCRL
basic fibroblast growth factor (bFGF), sequence (P09038 143-288, one chain of several): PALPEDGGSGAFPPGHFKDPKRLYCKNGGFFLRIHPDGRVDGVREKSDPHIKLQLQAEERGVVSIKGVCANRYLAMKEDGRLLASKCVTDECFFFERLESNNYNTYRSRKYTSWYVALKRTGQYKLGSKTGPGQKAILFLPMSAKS

B1: 73t (ssRNA)
RNA: GGGAGCUCAGAAUAAACGCUCAACUUACAGUUCGGCUGAGAGAAGACGCAUACUUCGACAUGAGGCCCGGAUCCGGC
- Kd [1]: 2.4 nM

B2: 2 (ssRNA)
RNA: GGGAGCUCAGAAUAAACGCUCAAUCUCAUUGCUCGUCGCACGGCGUAACCUAUUUCGACAUGAGGCCCGGAUCCGGC
- Kd [2]: 1.7 nM
- Kd [3]: 20000 nM
- Kd [4]: 230 nM
- Kd (lysozyme (egg white)): 1700 nM

B3: 87.3 (ssRNA)
RNA: GGGAGCUCAGAAUAAACGCUCAAGCUCUGGGAUGAUGCCCACUGUCCAGCAUCUUCGACAUG
- Kd [5]: 0.8 nM

B4: 6t (ssRNA)
RNA: GGGAGCUCAGAAUAAACGCUCAAUGCCUCAUGCCAAUGUGGGAGGGUGGGUGGUUCGACAUGAGGCCCGGAUCCGGC
- Kd [6]: 28 nM

B5: 86t (ssRNA)
RNA: B4 RNA with U24C, U39C
- Kd [7]: 2.8 nM

B6: 83t (ssRNA)
RNA: B4 RNA with U24C, U37C, G45C
- Kd [8]: 10.5 nM

B7: 87.4 (ssRNA)
RNA: GGAGCUCAGAAUAAACGCUCAAGCUCUGGGAUGAUGCCCACUGUCCAGCAUCUUCGACAUG
- Kd [9]: 4350 nM

B8: 4 (ssRNA)
RNA: GGGAGCUCAGAAUAAACGCUCAAUGUCUUACGGGUAAAGCCGAGAAAGUUUCCUUCGACAUGAGGCCCGGAUCCGGC
- Kd [10]: 0.7 nM

B9: 89 (ssRNA)
RNA: B8 RNA with U24A
- Kd [11]: 2.5 nM

Binder: GGUCUCAUUGCUCGUCGCACGGCGUAACCUAUUUCGACAUGAG (ssRNA) [2.3]
- Kd [12]: 2.6 nM

B10: 11t (ssRNA)
RNA: GGGAGCUCAGAAUAAACGCUCAACUUACGGGUAAAGCCGAGAAAAUGUAUUGCUUCGACAUGAGGCCCGGAUCCGGC
- Kd [13]: 0.6 nM

B11: 1 (orphan) (ssRNA)
RNA: GGGAGCUCAGAAUAAACGCUCAAGCCGAACCGAAUGGAGGUGGAGGGAUUGCGUUCGACAUGAGGCCCGGAUCCGGC
- Kd [14]: 1.4 nM

B12: 3 (ssRNA)
RNA: GGGAGCUCAGAAUAAACGCUCAAAGCUCAUCGUCUCGCAAGGCGUAUCCUAUUUCGACAUGAGGCCCGGAUCCGGC
- Kd [15]: 1.9 nM

Binder: GGGAAGACCUCUGCUUACAGCCCGGCUGAGACACUUCGACAUGAGGCC (ssRNA) [72.c]
- Kd [16]: 4.6 nM

B13: 87.7 (ssRNA)
RNA: GGGAGCUCAGAAUAAACGCUCAAGCUCUGGGAUGAUGCCCACUGUCCAGCAUCUUCGACAUGUGUAGCUAAACAGCUUUAGGA
- Kd [17]: 0.8 nM

B14: 35t (ssRNA)
RNA: GGGAGCUCAGAAUAAACGCUCAAGGCUGGGUCUUUUACAGGUAAAGCUGAGAAUUCGACAUGAGGCCCGGAUCCGGC
- Kd [18]: 2.4 nM

B15: 72t.2c (ssRNA)
RNA: GGGAUAAACGCUCAACUUACAGUUCGGCUGAGACGAAGAUCGACCUUCGACAU
- Kd [19]: 5 nM

B16: 87.5 (ssRNA)
RNA: GGGAGCUAUAAACGCAGCUCUGGGAUGAUGCCCACUGUCCAGCAUCUUCGACAUG
- Kd [20]: 3.1 nM

B17: 80 (ssRNA)
RNA: GGGAGCUCAGAAUAAACGCUCAAGCUCUGGGAUGAUGCCCAGUGUCCAGCAUCUUCGACAUGAGGCCCGGAUCCGGC
- Kd [3]: 29000 nM
- Kd [4]: 240 nM
- Kd (lysozyme (egg white)): 2700 nM
- Kd [21]: 1.6 nM

B18: 87 (ssRNA)
RNA: B17 RNA with G42C
- Kd [3]: 20000 nM
- Kd [4]: 220 nM
- Kd (lysozyme (egg white)): 2300 nM
- Kd [22]: 0.8 nM

B19: 87F (ssRNA)
RNA: B17 RNA with G42C
modifications: 2'-F all C and U
- Kd [23]: 1.2 nM

B20: 96 (ssRNA)
RNA: GGGAGCUCAGAAUAAACGCUCAAGACCUCUGCUUACAGUUCGGCUGAGACACUUCGACAUGAGGCCCGGAUCCGGC
- Kd [24]: 0.9 nM

B21: 79 (ssRNA)
RNA: B20 RNA with U39C
- Kd [25]: 1.7 nM

B22: 9t (ssRNA)
RNA: GGGAGCUCAGAAUAAACGCUCAACACGGGGGUGGGUGGGUGGCCGAGCGCUUGUUCGACAUGAGGCCCGGAUCCGGC
- Kd [26]: 39.4 nM
